# Measured values published in paper doi:10.1101/2025.04.14.648677 (bioRxiv, 2025).
# T1: AGR2 H117Y (not stated (human or mouse AGR2 made)), O95994
# T1 chain: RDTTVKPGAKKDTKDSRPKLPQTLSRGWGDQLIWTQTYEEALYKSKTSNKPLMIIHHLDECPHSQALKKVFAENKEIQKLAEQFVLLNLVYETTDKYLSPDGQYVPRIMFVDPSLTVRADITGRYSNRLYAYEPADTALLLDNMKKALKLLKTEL
# Assays:
# [1] = target: IRE1β_LD, wildtype (analytical SEC) (not stated (human numbering used; mouse IRE1β_LD used in cells)); experiment: SEC
# [2] = target: T1, AGR2 H117Y (not stated (human or mouse …)); experiment: SEC; conditions: remark: other sources report otherwise
# [3] = target: the molecule itself; experiment: SEC-SAXS
# [4] = target: the molecule itself; experiment: AUC
molecule,measurement,setting,value
"IRE1β_LD, wildtype (analytical SEC) (domain or fragment)",stoichiometry N,[1],2
"AGR2 H117Y, O95994 21-175 (natural protein) RDTTVKPGAKKDTKDSRPKLPQTLSRGWGDQLIWTQTYEEALYKSKTSNKPLMIIHHLDECPHSQALKKVFAENKEIQKLAEQFVLLNLVYETTDKYLSPDGQYVPRIMFVDPSLTVRADITGRYSNRLYAYEPADTALLLDNMKKALKLLKTEL",stoichiometry N,[2],2
"Human AGR2^41-171 (domain or fragment, UniProt O95994 41-171, looked up) PQTLSRGWGDQLIWTQTYEEALYKSKTSNKPLMIIHHLDECPHSQALKKVFAENKEIQKLAEQFVLLNLVYETTDKHLSPDGQYVPRIMFVDPSLTVRADITGRYSNRLYAYEPADTALLLDNMKKALKLL",stoichiometry N,[3],2
"mouse AGR2 (residues 21-175), AUC (natural protein, UniProt O88312 21-175, looked up) KDTTVKSGAKKDPKDSRPKLPQTLSRGWGDQLIWTQTYEEALYRSKTSNRPLMVIHHLDECPHSQALKKVFAEHKEIQKLAEQFVLLNLVYETTDKHLSPDGQYVPRIVFVDPSLTVRADITGRYSNRLYAYEPSDTALLYDNMKKALKLLKTEL",binding result,[4],binds
